Results: PMC11804915, “Single-stranded DNA binding to the transcription factor PafBC triggers the mycobacterial DNA damage response”

Legend:
Conditions in all cases: protein: recombinant; tags: C-terminal Strep on PafC; copies: 1;1; label: FAM; single strand
PafBC, PafC WYL variant = biological target: T1, PafBC, PafC WYL variant (Mycobacterium smegmatis, UniProt A4ZHT0;A0QZ41 1-331;1-318, R201A;R204A); test: EMSA; affinity comparable to WT; ssDNA EMSA: 22.5 mM Hepes-KOH pH 7.8, 135 mM NaCl, 20 mM KCl, 5 mM MgCl2, 1 mM DTT, 37 C 15 min, 10 nM DNA, 0-16 uM PafBC; RNAP EMSA: 20 mM Hepes-NaOH pH 8, 100 mM K-acetate, 36 mM NaCl, 10 mM MgCl2, 2 mM DTT, 37 C 30 min
T1 sequence 1: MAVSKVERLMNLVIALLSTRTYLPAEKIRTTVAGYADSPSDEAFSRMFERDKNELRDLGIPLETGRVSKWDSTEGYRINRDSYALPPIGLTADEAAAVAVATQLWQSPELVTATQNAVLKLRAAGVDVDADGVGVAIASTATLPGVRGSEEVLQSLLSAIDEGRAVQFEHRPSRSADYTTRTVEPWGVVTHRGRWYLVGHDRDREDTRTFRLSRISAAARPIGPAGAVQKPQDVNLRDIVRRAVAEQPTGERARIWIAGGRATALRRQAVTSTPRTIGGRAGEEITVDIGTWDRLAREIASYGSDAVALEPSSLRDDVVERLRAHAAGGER
T1 sequence 2: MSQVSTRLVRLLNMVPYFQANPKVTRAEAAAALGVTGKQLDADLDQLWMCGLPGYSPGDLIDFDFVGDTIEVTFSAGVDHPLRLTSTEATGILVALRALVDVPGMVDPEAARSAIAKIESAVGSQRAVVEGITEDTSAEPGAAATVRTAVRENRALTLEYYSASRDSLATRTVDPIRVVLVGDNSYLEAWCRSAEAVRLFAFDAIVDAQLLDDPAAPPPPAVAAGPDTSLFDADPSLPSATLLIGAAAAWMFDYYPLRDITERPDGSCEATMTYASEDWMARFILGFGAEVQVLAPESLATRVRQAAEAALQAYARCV

PafBC WYL RR = biological target: T2, PafBC WYL RR (Mycobacterium smegmatis, UniProt A4ZHT0;A0QZ41 1-331;1-318, R211A;R214A;R201A;R204A); test: EMSA; up to 16 uM; ssDNA EMSA: 22.5 mM Hepes-KOH pH 7.8, 135 mM NaCl, 20 mM KCl, 5 mM MgCl2, 1 mM DTT, 37 C 15 min, 10 nM DNA, 0-16 uM PafBC; RNAP EMSA: 20 mM Hepes-NaOH pH 8, 100 mM K-acetate, 36 mM NaCl, 10 mM MgCl2, 2 mM DTT, 37 C 30 min
T2 sequence 1: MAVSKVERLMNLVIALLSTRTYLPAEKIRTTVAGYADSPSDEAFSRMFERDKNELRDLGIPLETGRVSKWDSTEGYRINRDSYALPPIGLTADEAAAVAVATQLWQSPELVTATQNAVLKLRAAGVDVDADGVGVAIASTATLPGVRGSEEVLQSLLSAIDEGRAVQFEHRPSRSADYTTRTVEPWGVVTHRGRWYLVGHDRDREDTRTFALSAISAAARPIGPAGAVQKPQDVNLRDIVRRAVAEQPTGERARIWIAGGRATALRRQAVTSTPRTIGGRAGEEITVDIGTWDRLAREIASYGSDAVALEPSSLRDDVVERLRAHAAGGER
T2 sequence 2: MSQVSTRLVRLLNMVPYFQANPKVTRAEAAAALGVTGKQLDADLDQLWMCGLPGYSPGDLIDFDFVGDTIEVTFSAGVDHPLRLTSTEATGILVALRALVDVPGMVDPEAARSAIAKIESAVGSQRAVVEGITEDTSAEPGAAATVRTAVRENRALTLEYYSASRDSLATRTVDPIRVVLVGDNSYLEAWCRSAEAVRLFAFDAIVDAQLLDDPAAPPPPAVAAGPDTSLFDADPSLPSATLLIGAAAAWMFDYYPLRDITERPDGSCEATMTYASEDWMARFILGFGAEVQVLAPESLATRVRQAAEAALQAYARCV

PafBC, PafB R181A = biological target: T3, PafBC, PafB R181A (Mycobacterium smegmatis, UniProt A4ZHT0;A0QZ41 1-331;1-318, R181A); test: as above
T3 sequence 1: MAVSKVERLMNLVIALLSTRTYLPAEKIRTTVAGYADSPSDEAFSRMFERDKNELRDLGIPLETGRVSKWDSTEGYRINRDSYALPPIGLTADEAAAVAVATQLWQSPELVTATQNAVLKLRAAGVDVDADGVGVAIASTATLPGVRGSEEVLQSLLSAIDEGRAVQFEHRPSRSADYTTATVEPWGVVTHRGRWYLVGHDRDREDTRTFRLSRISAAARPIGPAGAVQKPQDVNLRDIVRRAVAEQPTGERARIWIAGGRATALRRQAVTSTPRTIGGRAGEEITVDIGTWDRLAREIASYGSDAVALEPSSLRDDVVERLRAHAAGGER
T3 sequence 2: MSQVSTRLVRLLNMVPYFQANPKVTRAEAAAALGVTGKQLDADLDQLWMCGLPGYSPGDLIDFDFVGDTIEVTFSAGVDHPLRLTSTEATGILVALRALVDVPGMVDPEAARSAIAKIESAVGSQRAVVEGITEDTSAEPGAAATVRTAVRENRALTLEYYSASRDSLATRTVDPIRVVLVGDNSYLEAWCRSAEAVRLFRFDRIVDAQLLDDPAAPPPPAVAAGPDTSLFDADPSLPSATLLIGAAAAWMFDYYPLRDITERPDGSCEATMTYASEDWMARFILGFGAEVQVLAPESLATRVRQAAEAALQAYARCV

[1] = biological target: T4, PafBC, PafB R181A/R204A/R208A (Mycobacterium smegmatis, UniProt A4ZHT0;A0QZ41 1-331;1-318, R204A;R208A;PafB:R181A); test: as above
T4 sequence 1: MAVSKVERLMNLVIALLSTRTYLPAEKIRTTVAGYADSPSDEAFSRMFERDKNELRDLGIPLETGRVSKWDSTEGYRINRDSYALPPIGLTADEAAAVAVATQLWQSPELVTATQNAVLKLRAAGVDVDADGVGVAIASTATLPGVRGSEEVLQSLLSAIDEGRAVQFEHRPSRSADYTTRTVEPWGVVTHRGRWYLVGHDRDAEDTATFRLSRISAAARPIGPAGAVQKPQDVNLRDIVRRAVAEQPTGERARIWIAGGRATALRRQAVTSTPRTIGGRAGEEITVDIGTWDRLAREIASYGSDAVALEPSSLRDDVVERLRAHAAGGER
T4 sequence 2: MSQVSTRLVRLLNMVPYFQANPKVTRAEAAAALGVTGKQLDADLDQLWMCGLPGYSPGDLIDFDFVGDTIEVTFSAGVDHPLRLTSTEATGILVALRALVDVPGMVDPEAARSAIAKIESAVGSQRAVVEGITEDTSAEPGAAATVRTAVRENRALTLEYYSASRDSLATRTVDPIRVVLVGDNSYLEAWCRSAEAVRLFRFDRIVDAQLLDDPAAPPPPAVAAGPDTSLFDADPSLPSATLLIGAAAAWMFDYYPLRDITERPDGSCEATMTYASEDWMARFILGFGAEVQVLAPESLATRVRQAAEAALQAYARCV

## TTTTTTTTTTTTTTTTTTTT (ssDNA) [dT20 ssDNA]
PafBC, PafC WYL variant
  binding result: binds
PafBC WYL RR
  binding result: no binding
PafBC, PafB R181A
  binding result: no binding
[1]
  binding result: no binding
